Assay [1] addresses T1, Human CCR2b (hCCR2b) (human, UniProt P41597-2 1-360).
T1 construct: also called CD192; MCP-1 receptor
T1 sequence: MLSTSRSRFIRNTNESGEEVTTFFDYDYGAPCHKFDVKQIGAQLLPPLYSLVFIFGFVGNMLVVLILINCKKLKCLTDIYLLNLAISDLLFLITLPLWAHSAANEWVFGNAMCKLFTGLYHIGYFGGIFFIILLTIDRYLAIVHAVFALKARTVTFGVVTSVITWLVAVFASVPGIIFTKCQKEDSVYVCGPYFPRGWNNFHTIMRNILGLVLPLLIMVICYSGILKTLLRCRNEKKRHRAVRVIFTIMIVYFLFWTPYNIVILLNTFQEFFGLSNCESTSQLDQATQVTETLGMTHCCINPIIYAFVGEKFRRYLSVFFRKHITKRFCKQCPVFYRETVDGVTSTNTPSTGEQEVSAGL
Description: flow cytometry on human whole blood, 0.5 µg/ml. From the text:
Y4T3 was humanized by CDR-grafting resulting in hY4T3. Databases of Human IgG sequences and human germline sequences were searched for comparison to the murine VH domain and VL domain using BLAST search algorithms, and candidate human variable domains selected from the top 200 BLAST results. These were reduced to five candidates for VH (HC1-HC5 or H1-H5) and five candidates for VL (LC1-LC5 or L1-L5) based on a combination of framework homology, maintaining key framework residues and canonical loop structure. In total 25 humanized variants of Y4T3 were generated. The humanized Y4T3 variants were tested for binding to human CCR2+ monocytes in whole human blood by flow cytometry. 60 μl of lithium-heparin anticoagulated human whole blood was incubated for 45 min on ice with the indicated antibodies at 0.5 μg/ml in PBS. After three washing steps with cold PBS the bound antibodies were detected with PE-F(ab)2 goat anti human IgG (Jackson ImmunoResearch, 109-116-098) together with directly labeled antibodies against CD8, CD4, CD123 and CD116. After 2 washing steps with 0.9% NaCl red blood cells were lysed with Lysing Solution (BDBioscience) for 10 min in the dark. Cells were washed once with PBS and analyzed by flow cytometry to identify CCR2 expression on various cell types including monocytes. Mean fluorescence intensity (MFI) for PE was determined for these cell populations and is depicted.
For orientation: A flow cytometer gives signals particle by particle.

Assay [2] has as its target T2, Marmoset CCR2b (Marmo-CCR2b) (marmoset monkey (Callithrix jacchus)).
T2 construct: On transfected CHO cells and, as native CCR2, on marmoset monocytes (splenocytes, PBMCs)
T2 chain: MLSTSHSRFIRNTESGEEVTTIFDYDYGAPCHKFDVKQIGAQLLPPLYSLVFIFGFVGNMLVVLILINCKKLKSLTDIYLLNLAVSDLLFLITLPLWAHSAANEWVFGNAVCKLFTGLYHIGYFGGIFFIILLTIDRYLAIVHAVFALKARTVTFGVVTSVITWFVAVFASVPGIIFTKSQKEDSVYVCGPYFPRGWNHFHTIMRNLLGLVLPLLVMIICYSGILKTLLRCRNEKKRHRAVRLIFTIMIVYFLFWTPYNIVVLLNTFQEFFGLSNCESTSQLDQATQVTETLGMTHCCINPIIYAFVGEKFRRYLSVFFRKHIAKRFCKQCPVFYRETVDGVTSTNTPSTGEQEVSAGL
Description: flow cytometry on marmoset splenocytes (legend of FIG. 8).

The target of assay [3] is T3, Human CCR5 (human, UniProt P51681 1-352).
T3 construct: On transfected CHO cells; also called CD195
As to the kind of experiment: flow cytometry on CHO cells transfected with human CCR5.

For a further assay, the target named is T4, Mouse CCR2 (mouse, UniProt P51683 1-373).
T4 construct: whole, on cells
As to the kind of experiment: flow cytometry on mouse CCR2 CHO cells, various concentrations. The method, then: Mouse CCR2 CHO cells and human CCR2 CHO cells were incubated for 45 min on ice with PBS or various concentrations of hY4T3. After 3 washing steps with cold PBS, cells were stained PE-F(ab)2 goat anti human IgG (1:300; Jackson, Cat.No.109-116-098) for 30 min on ice. After 3 washing steps with cold PBS cells were analyzed by FACS to measure mean fluorescence intensity (MFI).

Assay [4] concerns the target T1, Human CCR2b (hCCR2b). Description: flow cytometry on human whole blood, classical monocytes, median fluorescence intensity. As to the method:
Human heparinized whole blood was incubated with the indicated antibodies for 45 min on ice, washed three times with cold PBS, then stained with secondary PE-labeled rabbit-anti-mouse Ig (R0439, DakoCytomation 1:200) for 30 min on ice, washed 3 times with cold PBS. The 10% mouse serum was added for 10 min and after that directly labeled antibodies against CD3-APCCy7, CD8-PE-Cy7, CD4-V500, CD123-PerCP, CD304-APC, CD116-FITC, CD16-PB. After washing and lysis of red blood cells with BD Lysing solution cells were acquired on a FACSCanto-II and analyzed by FACS-DIVA software. Classical monocytes were identified by light scatter properties, expression of CD116 and absence of CD16 and CD123. Median fluorescence intensity for PE is depicted on classical monocytes.

The target in assay [5] is T5, Human CCR2b with the ECL2 domain of CCR2b of rhesus monkey (ECL2-hCCR2b) (human, with rhesus monkey ECL2 domain, UniProt O18793 1-360 (rhesus entry)).
T5 construct: On stably transfected CHO cells
T5 chain: T1 sequence with K183E, V189I
As to the kind of experiment: flow cytometry on stably transfected CHO cells. The method, then: (§1) To further investigate the specificity of the antibodies of the present invention, binding of Y4T3 to various CCR2 constructs was tested. […] Untransfected CHO cells (empty) were also analyzed. Antibodies were tested at concentration of 10 μg/ml and incubated with the cells for 30 min on ice. After 3 washing steps with cold PBS, the bound antibodies were detected with a PE-labeled polyclonal rabbit anti-mouse immunoglobulins antibody (R0439 from Agilent Dako, diluted 1:200 in PBS) for 30 min on ice. After two washing steps with PBS, cells were analyzed by flow cytometry. Mean fluorescence intensity for PE was determined on cells and is depicted.

The target in a further assay is T6, Rhesus CCR2b (rh-CCR2B) (rhesus monkey (Macaca mulatta), UniProt O18793 1-360).
T6 construct: On stably transfected CHO cells
T6 sequence: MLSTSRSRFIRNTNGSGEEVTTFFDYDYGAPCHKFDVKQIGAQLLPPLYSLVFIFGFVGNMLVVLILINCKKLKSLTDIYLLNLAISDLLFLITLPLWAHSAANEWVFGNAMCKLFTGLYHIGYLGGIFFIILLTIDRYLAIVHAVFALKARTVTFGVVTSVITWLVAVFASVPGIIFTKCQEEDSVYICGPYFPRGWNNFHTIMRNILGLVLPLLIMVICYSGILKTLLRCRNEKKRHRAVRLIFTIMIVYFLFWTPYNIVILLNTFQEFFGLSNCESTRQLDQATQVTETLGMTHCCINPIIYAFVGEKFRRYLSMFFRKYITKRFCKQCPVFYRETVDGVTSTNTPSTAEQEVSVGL
As to the kind of experiment: flow cytometry on stably transfected CHO cells. The method, then: as §1

Assay [6] deals with T7, Human CCR2b with the N-terminus of CCR2b of rhesus monkey (human, with rhesus monkey N-terminus, UniProt O18793 1-360 (rhesus entry)).
T7 construct: On stably transfected CHO cells
T7 chain: T1 sequence with E15G
Description: flow cytometry on stably transfected CHO cells, 10 µg/ml. The method, then: as §1

The target of assay [7] is T8, Human CCR2b with ECL3 domain of CCR2b of rhesus monkey (human, with rhesus monkey ECL3 domain, UniProt O18793 1-360 (rhesus entry)).
T8 construct: On stably transfected CHO cells
T8 chain: T1 sequence with S281R
The assay is described as above. As to the method: as §1

In assay [8] the target is T2, Marmoset CCR2b (Marmo-CCR2b). Description: summary table; affinity to CCR2 expressed on marmoset PBMCs.
For assay [9], the target named is T3, Human CCR5. As to the kind of experiment: summary table; binding to human CCR5.

The record followed here is patent publication US20250059288A1 (GRANITE BIO, published 2025).

Changes are numbered by the printed parent chain.

T3 sequence (P51681 whole entry): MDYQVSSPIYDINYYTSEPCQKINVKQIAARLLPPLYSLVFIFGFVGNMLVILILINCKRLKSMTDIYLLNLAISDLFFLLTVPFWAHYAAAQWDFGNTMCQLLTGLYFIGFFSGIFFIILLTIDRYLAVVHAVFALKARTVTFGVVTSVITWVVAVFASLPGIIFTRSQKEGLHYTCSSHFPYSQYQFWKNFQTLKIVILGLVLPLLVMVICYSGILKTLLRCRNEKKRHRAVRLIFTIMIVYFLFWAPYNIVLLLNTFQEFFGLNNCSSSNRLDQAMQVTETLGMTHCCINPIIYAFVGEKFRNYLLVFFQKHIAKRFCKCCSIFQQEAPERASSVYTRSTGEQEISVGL
T4 sequence (P51683 whole entry): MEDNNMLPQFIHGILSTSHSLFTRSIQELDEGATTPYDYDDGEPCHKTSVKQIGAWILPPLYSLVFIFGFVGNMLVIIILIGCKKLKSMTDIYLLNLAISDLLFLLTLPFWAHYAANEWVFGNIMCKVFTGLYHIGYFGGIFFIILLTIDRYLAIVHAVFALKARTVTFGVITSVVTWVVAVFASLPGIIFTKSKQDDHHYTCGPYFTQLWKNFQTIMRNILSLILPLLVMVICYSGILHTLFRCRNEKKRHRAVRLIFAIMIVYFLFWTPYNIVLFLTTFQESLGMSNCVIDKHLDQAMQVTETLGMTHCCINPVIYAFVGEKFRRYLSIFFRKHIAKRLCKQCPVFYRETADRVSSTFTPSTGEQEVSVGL

B1: hY4T3 (humanized Y4T3, variant H3L1) (antibody, V domains shown)
VH: QVQLVQSGAEVKKPGASVKVSCKASGSTFTRYTMHWVRQAPGQRLEWIGFIVPSTGYTKYNQKFKDRVTITRDTSASTAYMELSSLRSEDTAVYYCARNKEVDYGASWGQGTLVTVSS
VL: DVVMTQSPLSLPVTLGQPASISCKSSQSLLDSDGRTYLNWFQQRPGQSPRRLIYLVSKLDSGVPDRFSGSGSGTDFTLKITRVEAEDVGVYYCWQGSHFPQTFGQGTKVEIK
notes: detected with anti-human IgG; Human IgG1 is named as the preferred class
Take B1: the binding result with Human CCR2b (hCCR2b) [1] is “binds”; in assay [2], “binds”; in the assay with Human CCR5 [3], “no binding (tested: 10 µg/ml and 1 µg/ml)”; with Mouse CCR2 it was “no binding”.

B2: DOC-2 antibody (antibody, V domains shown)
VH: EVQLVESGGGLVKPGGSLKLSCVASGFTLSNYAMSWVRQSPEKRLEWVAEVSSSGIYIYYSDTVTGRFSISRDNAKNTLYLEMSSLRSEDTAIYYCARDRYAYAMDYWGHGTSVIVSS
VL: DIVMTQSPSSLAISVGQRVTLSCKSSQSLLNSYNQKNSLAWYQQKPGQSPKLLVYFASTRESGVPDRFIGSGSGTYFTLTITSVQAGDLADYFCQQHYSNPRTFGGGTRLEIK
notes: Prior art anti-CCR2 antibody; detected with anti-mouse Ig
As for B2, the binding result with Human CCR2b (hCCR2b) [4] is listed as “binds”.

B3: Antibody Y4T3 (antibody, V domains shown)
VH: QVHLQQSGTELARPGASIKLSCKTSGSTFTRYTMHWIKQRPGQGLEWIGFIVPSTGYTKYNQKFKDKATLTADKSSSTAYMHLNSLTSEDSALYYCARNKEVDYGASWGQGTLVTVSA
VL: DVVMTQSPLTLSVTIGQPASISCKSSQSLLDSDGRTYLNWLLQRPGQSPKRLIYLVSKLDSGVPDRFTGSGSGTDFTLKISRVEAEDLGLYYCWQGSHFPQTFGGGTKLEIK
notes: also called Y3T3 [sic]; Y4T4 [sic]
Turning to B3, the binding result in [5] was “no binding (tested: 10 µg/ml)”; with Rhesus CCR2b (rh-CCR2B), “no binding (tested: 10 µg/ml)”; in assay [6], “binds”; in assay [7], “binds”; in [8], “binds”; in the assay with Human CCR5 [9], “no binding”. Moreover, the “fold higher affinity than the tested prior art antibodies (DOC2, 1D9, Clone 48607)” value with Human CCR2b (hCCR2b) [4] was greater than 5 fold.

B4: human IgG1 chimeric variant of Y4T3 (Y4T3-chim) (antibody, V domains shown)
VH: B3 VH
VL: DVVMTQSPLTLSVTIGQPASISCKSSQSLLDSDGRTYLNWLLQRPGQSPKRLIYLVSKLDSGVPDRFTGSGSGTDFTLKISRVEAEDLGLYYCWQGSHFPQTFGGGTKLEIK
notes: also called H0L0
In the case of B4, in the assay with Human CCR5 [3], the binding result was “no binding (tested: 10 µg/ml and 1 µg/ml)”.
